Measured values reported in paper PMC5031558 (2016).

B1: SPATA2 PUB domain (aa 1–241) (domain or fragment)
chain: MGKPSSMDTKFKDDLFRKYVQFHESKVDTTTSRQRPGSDECLRVAASTLLSLHKVDPFYRFRLIQFYEVVESSLRSLSSSSLRALHGAFSMLETVGINLFLYPWKKEFRSIKTYTGPFVYYVKSTLLEEDIRAILSCMGYTPELGTAYKLRELVETLQVKMVSFELFLAKVECEQMLEIHSQVKDKGYSELDIVSERKSSAEDVRGCSDALRRRAEGREHLTASMSRVALQKSASERAAKD

How the values were obtained:
CYLD USP domain I790D [1] = target: T1, CYLD USP domain I790D (human, UniProt Q9NQC7 583-956, I790D); assay: SPR; kinetic
T1 sequence: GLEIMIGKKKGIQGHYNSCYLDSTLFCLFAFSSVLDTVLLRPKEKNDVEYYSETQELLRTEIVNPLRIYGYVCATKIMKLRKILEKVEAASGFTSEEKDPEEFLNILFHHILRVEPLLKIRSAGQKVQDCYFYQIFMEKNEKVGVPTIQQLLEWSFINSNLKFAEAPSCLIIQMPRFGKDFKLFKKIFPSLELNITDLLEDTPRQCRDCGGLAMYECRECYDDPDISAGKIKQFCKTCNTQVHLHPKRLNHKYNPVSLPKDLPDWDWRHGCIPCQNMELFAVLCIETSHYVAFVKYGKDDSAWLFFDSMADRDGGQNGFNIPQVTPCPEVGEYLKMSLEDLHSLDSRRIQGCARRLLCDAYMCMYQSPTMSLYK

CYLD USP domain I790D [2] = target: T1, CYLD USP domain I790D; assay: SPR
CYLD USP domain L622D = target: T2, CYLD USP domain L622D (human, UniProt Q9NQC7 583-956, L622D); assay: SPR; equilibrium
T2 sequence: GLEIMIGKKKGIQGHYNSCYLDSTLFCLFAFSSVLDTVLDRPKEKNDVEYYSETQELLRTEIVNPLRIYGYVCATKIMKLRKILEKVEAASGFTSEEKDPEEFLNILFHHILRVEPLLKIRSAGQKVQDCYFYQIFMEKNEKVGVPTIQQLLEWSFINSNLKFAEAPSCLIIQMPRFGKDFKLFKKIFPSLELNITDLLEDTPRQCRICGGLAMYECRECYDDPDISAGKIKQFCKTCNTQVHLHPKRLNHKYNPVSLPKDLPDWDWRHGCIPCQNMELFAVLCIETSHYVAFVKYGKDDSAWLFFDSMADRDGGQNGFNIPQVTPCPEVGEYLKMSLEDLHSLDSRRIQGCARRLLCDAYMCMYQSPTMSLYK

[3] = target: CYLD ΔB-box (purified USP domain without the B-box) (human, UniProt Q9NQC7 592-950); assay: SPR; equilibrium
[4] = target: B1; assay: SPR; kinetic
[5] = target: B1; assay: SPR

Binder	Kd (CYLD USP domain I790D [1])	koff (CYLD USP domain I790D [2])	Kd (CYLD USP domain L622D)	Kd [3]	Kd [4]	koff [5]
B1	585 nM	0.086 s⁻¹	> 60000 nM	> 100000 nM		
CYLD USP domain (aa 583–956) (domain or fragment) GLEIMIGKKKGIQGHYNSCYLDSTLFCLFAFSSVLDTVLLRPKEKNDVEYYSETQELLRTEIVNPLRIYGYVCATKIMKLRKILEKVEAASGFTSEEKDPEEFLNILFHHILRVEPLLKIRSAGQKVQDCYFYQIFMEKNEKVGVPTIQQLLEWSFINSNLKFAEAPSCLIIQMPRFGKDFKLFKKIFPSLELNITDLLEDTPRQCRICGGLAMYECRECYDDPDISAGKIKQFCKTCNTQVHLHPKRLNHKYNPVSLPKDLPDWDWRHGCIPCQNMELFAVLCIETSHYVAFVKYGKDDSAWLFFDSMADRDGGQNGFNIPQVTPCPEVGEYLKMSLEDLHSLDSRRIQGCARRLLCDAYMCMYQSPTMSLYK					84 nM	0.02 s⁻¹
